Paper PMC3075949

What was measured:
[1] = target: Rh gH/gL-YFPC (rhesus lymphocryptovirus (Rh-LCV)); assay: split reporter
[2] = target: EBV gH/gL-YFPC (Epstein-Barr virus (EBV)) (UniProt P03231); assay: split reporter

“EBV gB-YFPN (from UniProt P03188 22-857) (natural protein)” gave a % YFP cells of cells stained for gB and gH/gL [1] of 68%.
“EBV/Rh (456-628) gB-YFPN (from UniProt P03188 22-450; P03188 624-857)” was tested, and the % YFP cells of cells stained for gB and gH/gL [2] was 93% and the % YFP cells of cells stained for gB and gH/gL [1] was 72%.
Substance “EBV/Rh (456-807) gB-YFPN (from UniProt P03188 22-450; P03188 801-857)” has a % YFP cells of cells stained for gB and gH/gL [1] of 79%.
For “EBV/Rh (628-807) gB-YFPN (from UniProt P03188 22-622; P03188 801-857)”, the % YFP cells of cells stained for gB and gH/gL [1] was 59%.
